Measurements published in patent US20040081659A1, “Conjugates useful in the treatment of prostate cancer” (Merck & Co., Inc., priority 1997, published 2004).
Where “and” joins values, the source holds several entries; their conditions need not be identical. Identical values can stand only once. Like-named read-outs stand apart in the source and are kept apart here.

Assays:
[1] = biological target: T1, enzymatically active free PSA (York PSA) (Homo sapiens, UniProt P07288); experiment: Recognition/cleavage of oligopeptide-vinca drug conjugates by free PSA (HPLC); type: biochemical; settings: for Time to 50% Substrate Cleavage by York PSA: conjugate to PSA molar ratio 100 to 1, pH7.4 buffer
T1 construct: 50% cleavage of the noted. oligopeptide-cytotoxic agent conjugates with enzymatically active free PSA were then calculated; purchased York
T1 sequence (P07288 25-261): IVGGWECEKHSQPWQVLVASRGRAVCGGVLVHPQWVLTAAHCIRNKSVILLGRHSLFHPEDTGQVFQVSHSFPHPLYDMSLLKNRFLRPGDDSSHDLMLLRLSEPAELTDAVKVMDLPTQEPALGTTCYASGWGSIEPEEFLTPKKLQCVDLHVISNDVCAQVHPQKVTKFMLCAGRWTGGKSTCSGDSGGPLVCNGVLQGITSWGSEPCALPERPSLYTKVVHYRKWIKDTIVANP
Procedure: The conjugates prepared as described in Example 3 were individually dissolved in PSA digestion buffer (50 mM tris(hydroxymethyl)-aminomethane pH7.4, 140 mM NaCl) and the solution added to PSA at a molar ration of 100 to 1. Alternatively, the PSA digestion buffer utilized is 50 mM tris(hydroxymethyl)-aminomethane pH7.4, 140 mM NaCl. The reaction was quenched after various reaction times by the addition of trifluoroacetic acid (TFA) to a final 1% (volume/volume). Alternatively the reaction is quenched with 10 mM ZnCl2. The quenched reaction was analyzed by HPLC on a reversed-phase C18 column using an aqueous 0.1 % TFA/acetonitrile gradient. The amount of time (in minutes) required for 50% cleavage of the noted. oligopeptide-cytotoxic agent conjugates with enzymatically active free PSA were then calculated.

[2] = biological target: T1, enzymatically active free PSA (York PSA); experiment: as above; type: biochemical
Colo320DM cells = experiment: In vitro cytotoxicity, Alamar Blue assay, Colo320DM control cells (do not express free PSA); type: cell-based; settings: 72 HRS, read-out: Colo320DM cell kill EC 50 (in parentheses)
Procedure: (§1) Specifically, cell cultures of LNCap prostate tumor cells, Colo320DM cells (designated C320) or T47D cells in 96 well plates was diluted with medium containing various concentrations of a given conjugate (final plate well volume of 200 μl). […] The cells were incubated for 3 days at 37° C., 20 μl of Alamar Blue is added to the assay well. The cells were further incubated and the assay plates were read on a EL-310 ELISA reader at the dual wavelengths of 570 and 600 nm. at 4 and 7 hours after addition of Alamar Blue. Relative percentage viability at the various concentration of conjugate tested was then calculated versus control (no conjugate) cultures and an EC50 was determined. Unless otherwise indicated, the acetate salt of the conjugate was tested.

[3] = test system: LNCap prostate tumor cells; experiment: In vitro cytotoxicity, Alamar Blue assay, LNCaP cells; type: cell-based; settings: read-out: LNCaP Cell Kill in 72 HRS EC 50
Procedure: as §1

Row | Molecule | Time to 50% Substrate Cleavage by York PSA [1] | Substrate cleavage by York PSA at 1 HOUR [1] | other results
1 | 4-O-(Ac-3-Pal-SSChgQ(dS)-P)-dAc-VIN (XSSXQXP; D-residues; non-natural residues) |  |  | Substrate cleavage by York PSA at 3 HOURS ([1]; 3 HOURS): 3 HOURS = 0%
2 | 4-O-(Ac-SSChgQ-SS-P)-dAc-VIN (XSXQSSP; non-natural residues) | 15 min |  | 
3 | 4-O-[(2-OH)Ac-SChgQSS-Sar]-dAc-VIN (XXQSSX; N-methyl; non-natural residues) |  | 1 HOUR = 4% | 
4 | 4-O-[Ac-4-trans-L-HypSSChgQ-(dS)SP]-dAc-VIN |  |  | Time to 50% Substrate Cleavage by York PSA, 10 X ENZ [2]: 6 HOURS (10 X
5 | 4-O-[Ac-SChgQS-Aib-P]-dAc-VIN |  | 1 HOUR = 8% | 
6 | 4-O-[Ac-SChgQSS-Aib-P]-dAc-VIN | 15 min and 23 min |  | 
7 | 4-O-[Ac-SChgQSS-Pip]-dAc-VIN | 15 min |  | 
8 | 4-O-[Ac-SSChgQ-S(dS)-4-trans-L-Hyp]-dAc-VIN |  | 1 HOUR = 14% | 
9 | CC[C@]1(O)C[C@H]2CN(CCc3c([nH]c4ccccc34)[C@@](C(=O)OC)(c3cc4c(cc3OC)N(C)[C@H]3[C@@](O)(C(=O)OC)[C@H](OC(=O)CNC)[C@]5(CC)C=CCN6CC[C@]43[C@@H]65)C2)C1 [4-O-sarcosyl-(dAc)-VIN] |  |  | EC50 (Colo320DM cells): 1800 nM; EC50 ([3]; 72 HRS): 1300 nM
10 | CCC1(O)CC2CN(CCc3c([nH]c4ccccc34)C(C(=O)OC)(c3cc4c(cc3OC)N(C)C3C(O)(C(=O)OC)C(OC(=O)C5CC(O)CN5)C5(CC)C=CCN6CCC43C65)C2)C1 [(4-O-4-trans-L-Hyp)-dAc-VIN] |  |  | EC50 (Colo320DM cells): 1100 nM; EC50 ([3]; 72 HRS): 600 nM
11 | CC[C@]1(O)C[C@@H]2CN(CCc3c([nH]c4ccccc34)[C@@](C(=O)OC)(c3cc4c(cc3OC)N(C)[C@H]3[C@@](O)(C(=O)OC)[C@H](OC(C)=O)[C@]5(CC)C=CCN6CC[C@]43[C@@H]65)C2)C1 [VINBLASTINE, reference compound] |  |  | EC50 (Colo320DM cells; Homo sapiens, COLO 320DM): 500 nM; EC50 ([3]; Homo sapiens, LNCaP, 72 h): 500 nM
12 | (4-O)-Ac-(4-trans-L-Hyp)SSChgQ-SL-(dAc)-VIN (XSSXQSL; non-natural residues) | 35 min |  | 
13 | Ac-AbuSSChgQ-(dS)-(4-O-P)-dAc-VIN |  | 1 HOUR = 0% | 
